Source: article PMC10602362, “Interchangeability of class I and II fumarases in an obligate methanotroph Methylotuvimicrobium alcaliphilum 20Z” (PLOS ONE, 2023)
Each block holds one molecule with its values, some of them ahead of it.

What was measured:
FumI (class I fumarase) [1] = molecular target: T1, FumI (class I fumarase) (Methylotuvimicrobium alcaliphilum, UniProt G4T1T1); assay: spectrophotometric hydration assay at […] nm, Hill fit; format: biochemical; conditions: 50 mM Tris-HCl pH 8.5, optimal conditions, aerobic; Hill n = 1.4 ± 0.2; read-out: Class I fumarase / S0.5
T1 construct: gene fumA; full length, 507 residues, His6-tagged, pET22b(+), E. coli BL21(DE3); homodimer (130 kDa); aerobically purified, stabilised with iron-sulfur mixture; [4Fe-4S]

FumC (class II fumarase) [2] = molecular target: T2, FumC (class II fumarase) (Methylotuvimicrobium alcaliphilum, UniProt G4SWR5); conditions: read-out: Class II fumarase (FumС) / Km(S0.5*); 50 mM Tris-HCl pH 8.0; text b40 prints 0.10 ± 0.001 mM
FumC (class II fumarase) [3] = molecular target: T2, FumC (class II fumarase); assay: coupled assay with NADP-dependent malic enzyme at […] nm; format: biochemical; design: full length (gene 1404 bp), His6-tagged, pET22b(+), E. coli BL21(DE3); homotetramer (184 kDa); conditions: 1 mM fumarate, 50 mM Tris-HCl pH 8.0, coupling enzyme present
FumI (class I fumarase) [4] = molecular target: T1, FumI (class I fumarase); assay: as above; format: biochemical; conditions: activator; 1 mM succinate, 1 mM fumarate, 50 mM Tris-HCl pH 8.5, 5 mM MgCl2; coupling enzyme present
purified protein [5] = substrate: O=C(O)C[C@H](O)C(=O)O; assay: purified protein
purified protein [6] = substrate: C/C(=C\C(=O)O)C(=O)O; assay: purified protein; format: biochemical, Methylotuvimicrobium alcaliphilum; conditions: 50 mM Tris-HCl pH 8.5, aerobic, Hill n = 1.4 ± 0.1, error in Table 1 printed ± 0.2
[7] = 50 mM Tris-HCl pH 8.5, aerobic, Hill n = 1.7 ± 0.1, error in text b33 ± 0.03
[8] = 50 mM Tris-HCl pH 8.5, Hill n = 2.1 ± 0.4

Km (FumI (class I fumarase) [1]): 280 ± 40 µM | Km (FumC (class II fumarase) [2]): 110 ± 4 µM
Molecule: O=C(O)/C=C/C(=O)O [fumarate]

% reduction of activity at 1 mM (FumC (class II fumarase) [3]; 1 mM citrate): 50%
Molecule: O=C(O)CC(O)(CC(=O)O)C(=O)O [citrate]

fold activity at 1 mM (FumI (class I fumarase) [4]): ~ 1.5 fold
Molecule: O=C(O)CCC(=O)O [succinate]

% reduction of activity at 1 mM (FumC (class II fumarase) [3]; 1 mM phosphoenolpyruvate): 30%
Molecule: C=C(OP(=O)(O)O)C(=O)O [phosphoenolpyruvate]

B1: FumI (class I fumarase) (Methylotuvimicrobium alcaliphilum 20Z) (protein)
chain: MTLIRQEDFIQSIFESLQYISYYHPQDFIEAMYRAYQNEQSSAAKDAIAQILINSRMCAEGHRPICQDTGIVVVFLKIGMNVQWDAQISITDMVNEGVRRAFMHPDNILRASILSDPAGKRINTRDNTPAVVYMEVVPGDRVEVEIAAKGGGSEAKSKFAMLNPSDSIVDWVMQTVPTMGAGWCPPGILGIGIGGTAEKAMLLAKQACMESVDIHELIARGPVNALEELRLELYEKVNALGIGAQGMGGLTTVLDIKIKDYPAHAANKPVAMIPNCAATRHIHFELDGSGPAELPVPCLEDWPKIAWEGGNSAKRVNLDTVTKDEIATWRPGETLLLSGTLLTGRDAAHKRIVEMLERGEALPEGVDFTNKFIYYVGPVDPVRDEVVGPAGPTTATRMDKFTEAMLAQTGLIGMIGKAERGPVAIEAIKKHRAVYLMAVGGAAYLVSKAIRKARVVAFEDLGMEAVHEFVIEDMPVTVAVDVDGESIHKSGPKQWQAKIGKIPVVSK
notes: full length, 507 residues, His6-tagged, pET22b(+), E. coli BL21(DE3); homodimer (130 kDa); aerobically purified, stabilised with iron-sulfur mixture; [4Fe-4S]
K0.5 (purified protein [5]; [7]): 0.55 ± 0.02 mM | kcat/Km (purified protein [5]; [7]): 180 M⁻¹ s⁻¹ | K0.5 (purified protein [6]): 0.24 ± 0.02 mM | kcat/Km (purified protein [6]): 750 M⁻¹ s⁻¹

B2: FumC (class II fumarase) (Methylotuvimicrobium alcaliphilum 20Z) (protein)
chain: MTIGSSAGRIESDALGSIEVPADKYWGAQTQRSLHYFAIGDERLPRPLIRALGIVKRCAALSNIAQNKLDEKLGRAIVDAAQEVIDGALDEHFPLVIWQTGSGTQSNMNANEVIANRVNERLGGALGSKSPVHPNDHCNLSQSSNDVFPSAMHIAAVEQLQCLLIPSLQRLQKTLSDKSQAWADIIKIGRTHLQDATPLSLGQEFSGYATQVQLSIERLQDSLKRLYPLAQGGTAVGTGLNSSQGFAELFADEVAKFTGHPFTSAANKFEAMAAHDALVELSGVLNCSAVSLNKIANDIRLLSSGPRSGLGELILPANEPGSSIMPGKINPTQCEALTMVCTQVIGNHTTVTLAGAQGHLELNTFKPVMIYNVLQSIRLLGDAAHSFTEHCVAGIQPNAERIAELMEQSLMLVTALVPQIGYDKAAQIAKTAMQNGTTLREEAIAVGLVSAEQFDAIVRPERMIMPK
K0.5 (purified protein [5]; [8]): 0.14 ± 0.01 mM | kcat/Km (purified protein [5]; [8]): 1000 M⁻¹ s⁻¹
